The target in the test is FcBP-encapsulin (Fc-binding peptide inserted encapsulin protein cage nanoparticle) (Thermotoga maritima) (UniProt Q9WZP2). Put plainly: SEC; elution of purified FcBP-encapsulin compared with encapsulin.

We go through 1 substance from PMC4552281.

On to “FcBP-encapsulin (Fc-binding peptide inserted encapsulin protein cage nanoparticle) (from UniProt Q9WZP2 1-138; Q9WZP2 139-265) (designed binder)”, for which the stoichiometry N – broadly, a count of units in the complex or per binding partner – is 60.
